Data as given in article PMC9482650, “Quantitative fragmentomics allow affinity mapping of interactomes” (Nature Communications, 2022).

B1: CXCR1, P25024 (peptide)
chain: SSSVNVSSNL
B2: PTH1R, Q03431 (peptide)
chain: LLQEEWETVM
B3: CTNND2, Q9UQB3 (peptide)
chain: HYPASPDSWV
B4: ATRNL1, Q5VV63 (peptide)
chain: HLSTRQGTCV

Columns and labels:
Test in all cases: holdup assay
Design in all cases: key: below the threshold = too weak to quantify, mostly under pKd 3.1 to 4
Conditions in all cases: plain residues with an end cap or a label only (N-terminal biotin on a linker: ado-ado)
GRIP1_5, Q9Y3R0 = target: T1, GRIP1_5, Q9Y3R0
T1 sequence (Q9Y3R0 568-668, limits assumed, looked up): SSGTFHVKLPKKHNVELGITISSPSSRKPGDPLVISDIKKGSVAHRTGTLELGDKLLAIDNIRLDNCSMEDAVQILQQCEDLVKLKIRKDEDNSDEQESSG

LIN7A, O14910 = target: T2, LIN7A, O14910
T2 sequence (O14910 103-200, limits assumed, looked up): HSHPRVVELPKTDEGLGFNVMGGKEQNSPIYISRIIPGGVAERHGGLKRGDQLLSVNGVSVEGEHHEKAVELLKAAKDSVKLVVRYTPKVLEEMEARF

GORASP1, Q9BQQ3 = target: GORASP1, Q9BQQ3
GORASP1, Q9BQQ3, sequence (Q9BQQ3 1-208): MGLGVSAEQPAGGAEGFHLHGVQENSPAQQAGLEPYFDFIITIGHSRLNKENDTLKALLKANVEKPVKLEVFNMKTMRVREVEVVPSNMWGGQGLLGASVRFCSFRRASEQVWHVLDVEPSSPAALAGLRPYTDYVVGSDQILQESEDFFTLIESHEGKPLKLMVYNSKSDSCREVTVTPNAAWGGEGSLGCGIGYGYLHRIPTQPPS

GRIP1_2, Q9Y3R0 = target: T3, GRIP1_2, Q9Y3R0
T3 sequence (Q9Y3R0 145-248, limits assumed, looked up): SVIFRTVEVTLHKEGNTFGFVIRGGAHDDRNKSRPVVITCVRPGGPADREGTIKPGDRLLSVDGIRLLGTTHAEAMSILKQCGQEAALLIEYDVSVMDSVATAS

GRIP1_3, Q9Y3R0 = target: T4, GRIP1_3, Q9Y3R0
T4 sequence (Q9Y3R0 247-346, limits assumed, looked up): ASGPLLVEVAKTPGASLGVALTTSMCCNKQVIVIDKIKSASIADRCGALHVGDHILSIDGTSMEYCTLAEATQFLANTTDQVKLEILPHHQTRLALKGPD

RAPGEF6, Q8TEU7 = target: T5, RAPGEF6, Q8TEU7
T5 sequence (Q8TEU7 525-625, limits assumed, looked up): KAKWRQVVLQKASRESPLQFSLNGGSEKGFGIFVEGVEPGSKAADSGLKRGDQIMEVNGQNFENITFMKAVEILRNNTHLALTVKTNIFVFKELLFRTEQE

RADIL, Q96JH8 = target: T6, RADIL, Q96JH8
T6 sequence (Q96JH8 971-1071, limits assumed, looked up): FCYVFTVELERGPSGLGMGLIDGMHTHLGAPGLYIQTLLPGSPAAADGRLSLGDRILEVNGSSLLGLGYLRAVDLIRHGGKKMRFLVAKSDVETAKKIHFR

DLG5_1, Q8TDM6 = target: DLG5_1, Q8TDM6
DLG5_1, Q8TDM6, sequence (Q8TDM6 617-713): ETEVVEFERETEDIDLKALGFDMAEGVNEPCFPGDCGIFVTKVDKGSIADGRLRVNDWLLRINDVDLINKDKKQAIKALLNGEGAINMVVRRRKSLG

TJP3_3, O95049 = target: T7, TJP3_3, O95049
T7 sequence (O95049 375-456, limits assumed, looked up): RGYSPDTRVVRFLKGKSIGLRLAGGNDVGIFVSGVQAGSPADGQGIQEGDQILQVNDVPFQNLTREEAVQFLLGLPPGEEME

NHERF4_4, Q86UT5 = target: NHERF4_4, Q86UT5
NHERF4_4, Q86UT5, sequence (Q86UT5 464-550): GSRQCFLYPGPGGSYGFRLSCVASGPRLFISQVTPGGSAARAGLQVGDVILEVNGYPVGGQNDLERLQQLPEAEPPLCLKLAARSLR

NHERF4_2, Q86UT5 = target: NHERF4_2, Q86UT5
NHERF4_2, Q86UT5, sequence (Q86UT5 220-308): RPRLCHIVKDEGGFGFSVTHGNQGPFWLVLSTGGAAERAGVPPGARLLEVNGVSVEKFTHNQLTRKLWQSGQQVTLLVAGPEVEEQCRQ

DLG1_1, Q12959 = target: DLG1_1, Q12959
TJP2_1, Q9UDY2 = target: TJP2_1, Q9UDY2
TJP2_1, Q9UDY2, sequence (Q9UDY2 24-128): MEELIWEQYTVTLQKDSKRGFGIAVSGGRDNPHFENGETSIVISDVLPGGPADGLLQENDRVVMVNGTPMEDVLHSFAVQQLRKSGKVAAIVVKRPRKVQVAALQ

DLG4_3, P78352 = target: DLG4_3, P78352
DLG4_3, P78352, sequence (P78352 306-403): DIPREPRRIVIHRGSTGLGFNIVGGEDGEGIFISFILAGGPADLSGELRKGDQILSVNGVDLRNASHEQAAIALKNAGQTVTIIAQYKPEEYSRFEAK

PDZRN4_1, Q6ZMN7 = target: PDZRN4_1, Q6ZMN7
PDZRN4_1, Q6ZMN7, sequence (Q6ZMN7 213-318): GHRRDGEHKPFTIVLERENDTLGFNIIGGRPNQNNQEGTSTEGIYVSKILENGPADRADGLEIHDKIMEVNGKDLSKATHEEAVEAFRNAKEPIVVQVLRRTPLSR

PDZRN3_1, Q9UPQ7 = target: T8, PDZRN3_1, Q9UPQ7
T8 sequence (Q9UPQ7 244-349, limits assumed, looked up): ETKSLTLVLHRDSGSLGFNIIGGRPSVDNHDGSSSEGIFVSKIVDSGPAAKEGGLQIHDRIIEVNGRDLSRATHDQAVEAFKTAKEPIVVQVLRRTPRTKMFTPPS

GORASP2, Q9H8Y8 = target: GORASP2, Q9H8Y8
LNX1_3, Q8TBB1 = target: LNX1_3, Q8TBB1
LNX1_3, Q8TBB1, sequence (Q8TBB1 500-596): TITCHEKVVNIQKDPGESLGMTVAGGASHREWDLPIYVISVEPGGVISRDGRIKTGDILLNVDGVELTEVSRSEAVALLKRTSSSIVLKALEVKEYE

HTRA1, Q92743 = target: HTRA1, Q92743
HTRA1, Q92743, sequence (Q92743 360-477): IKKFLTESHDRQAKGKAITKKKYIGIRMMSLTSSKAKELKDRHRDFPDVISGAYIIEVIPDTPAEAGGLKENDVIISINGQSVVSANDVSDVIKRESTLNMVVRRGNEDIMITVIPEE

PDLIM1, O00151 = target: PDLIM1, O00151
PDLIM1, O00151, sequence (O00151 1-87): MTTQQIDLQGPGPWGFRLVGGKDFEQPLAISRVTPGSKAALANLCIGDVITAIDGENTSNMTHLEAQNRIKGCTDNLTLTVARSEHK

RHPN1, Q8TCX5 = target: T9, RHPN1, Q8TCX5
T9 sequence (Q8TCX5 508-602, limits assumed, looked up): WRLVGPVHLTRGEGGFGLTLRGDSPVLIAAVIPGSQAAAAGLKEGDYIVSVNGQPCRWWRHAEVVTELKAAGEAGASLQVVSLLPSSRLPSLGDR

SCRIB_1, Q14160 = target: SCRIB_1, Q14160
SCRIB_1, Q14160, sequence (Q14160 718-814): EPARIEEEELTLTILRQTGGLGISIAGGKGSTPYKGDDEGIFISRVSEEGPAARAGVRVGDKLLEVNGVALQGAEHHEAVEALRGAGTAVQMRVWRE

GOPC, Q9HD26 = target: GOPC, Q9HD26
Inadl_10, Q8NI35 = target: Inadl_10, Q8NI35
Inadl_10, Q8NI35, sequence (Q8NI35 1673-1763): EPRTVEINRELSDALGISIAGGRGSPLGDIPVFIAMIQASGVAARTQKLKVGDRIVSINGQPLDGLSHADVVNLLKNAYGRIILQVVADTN

LNX1_1, Q8TBB1 = target: LNX1_1, Q8TBB1
LNX1_1, Q8TBB1, sequence (Q8TBB1 261-371): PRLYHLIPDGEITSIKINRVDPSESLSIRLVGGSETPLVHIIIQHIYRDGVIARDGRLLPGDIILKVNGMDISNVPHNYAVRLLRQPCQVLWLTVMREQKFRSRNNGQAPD

FRMPD1, Q5SYB0 = target: T10, FRMPD1, Q5SYB0
T10 sequence (Q5SYB0 52-145, limits assumed, looked up): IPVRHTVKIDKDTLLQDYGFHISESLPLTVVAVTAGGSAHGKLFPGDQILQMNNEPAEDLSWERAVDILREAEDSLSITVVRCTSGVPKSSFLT

MAGI1_1, Q96QZ7 = target: MAGI1_1, Q96QZ7
MAGI1_1, Q96QZ7, sequence (Q96QZ7 1-106): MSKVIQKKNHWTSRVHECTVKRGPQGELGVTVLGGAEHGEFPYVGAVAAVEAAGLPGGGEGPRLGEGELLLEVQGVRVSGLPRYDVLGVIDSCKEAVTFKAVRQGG

MAST2, Q6P0Q8 = target: MAST2, Q6P0Q8
MAST2, Q6P0Q8, sequence (Q6P0Q8 1099-1202): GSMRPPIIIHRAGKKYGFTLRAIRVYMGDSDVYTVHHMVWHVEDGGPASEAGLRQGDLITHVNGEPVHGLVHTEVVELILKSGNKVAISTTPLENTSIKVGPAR

Binder	pKd (GRIP1_5, Q9Y3R0)	pKd (LIN7A, O14910)	pKd (GORASP1, Q9BQQ3)	pKd (GRIP1_2, Q9Y3R0)	pKd (GRIP1_3, Q9Y3R0)	pKd (RAPGEF6, Q8TEU7)	pKd (RADIL, Q96JH8)	pKd (DLG5_1, Q8TDM6)	pKd (TJP3_3, O95049)	pKd (NHERF4_4, Q86UT5)	pKd (NHERF4_2, Q86UT5)	pKd (DLG1_1, Q12959)	pKd (TJP2_1, Q9UDY2)	pKd (DLG4_3, P78352)	pKd (PDZRN4_1, Q6ZMN7)	pKd (PDZRN3_1, Q9UPQ7)	pKd (GORASP2, Q9H8Y8)	pKd (LNX1_3, Q8TBB1)	pKd (HTRA1, Q92743)	pKd (PDLIM1, O00151)	further results
B1	below the threshold	below the threshold	below the threshold	below the threshold	below the threshold	below the threshold	below the threshold	below the threshold	below the threshold	below the threshold	below the threshold	below the threshold	below the threshold	below the threshold	below the threshold	below the threshold	below the threshold	below the threshold	below the threshold	below the threshold	pKd (RHPN1, Q8TCX5): 3.67; pKd (SCRIB_1, Q14160): below the threshold; pKd (GOPC, Q9HD26): below the threshold; pKd (Inadl_10, Q8NI35): below the threshold; pKd (LNX1_1, Q8TBB1): 3.59; pKd (FRMPD1, Q5SYB0): below the threshold; pKd (MAGI1_1, Q96QZ7): below the threshold; pKd (MAST2, Q6P0Q8): 5.13
B2	below the threshold	below the threshold	4.31	3.63	below the threshold	below the threshold	3.99	below the threshold	below the threshold	below the threshold	below the threshold	below the threshold	below the threshold	below the threshold	4.2	3.83	below the threshold	below the threshold	4.68	below the threshold	pKd (RHPN1, Q8TCX5): 4.41; pKd (SCRIB_1, Q14160): 3.62; pKd (GOPC, Q9HD26): 3.85; pKd (Inadl_10, Q8NI35): below the threshold; pKd (LNX1_1, Q8TBB1): 3.72; pKd (FRMPD1, Q5SYB0): below the threshold; pKd (MAGI1_1, Q96QZ7): below the threshold; pKd (MAST2, Q6P0Q8): 5.68
B3	below the threshold	below the threshold	3.93	below the threshold	below the threshold	below the threshold	5.02	below the threshold	4.91	below the threshold	3.55	4.07	4.37	below the threshold	4.14	3.83	4.51	below the threshold	4.71	4.06	pKd (RHPN1, Q8TCX5): 4.42; pKd (SCRIB_1, Q14160): 4.06; pKd (GOPC, Q9HD26): below the threshold; pKd (Inadl_10, Q8NI35): 3.53; pKd (LNX1_1, Q8TBB1): 4.12; pKd (FRMPD1, Q5SYB0): below the threshold; pKd (MAGI1_1, Q96QZ7): below the threshold; pKd (MAST2, Q6P0Q8): 4.17
B4	below the threshold	below the threshold	3.47	below the threshold	below the threshold	below the threshold	4.28	below the threshold	below the threshold	3.94	below the threshold	4.18	4.35	3.87	3.76	3.97	4.15	below the threshold	4.91	below the threshold	pKd (RHPN1, Q8TCX5): 3.65; pKd (SCRIB_1, Q14160): 3.66; pKd (GOPC, Q9HD26): 3.76; pKd (Inadl_10, Q8NI35): below the threshold; pKd (LNX1_1, Q8TBB1): 4.34; pKd (FRMPD1, Q5SYB0): below the threshold; pKd (MAGI1_1, Q96QZ7): below the threshold; pKd (MAST2, Q6P0Q8): 4.94
